Assay results published in the supplement of paper PMC10065799, “High-throughput profiling of sequence recognition by tyrosine kinases and SH2 domains using bacterial peptide display” (eLife, 2023).

What was measured:
Grb2 SH2 = Grb2 SH2 (UniProt P62993); experiment: SH2 binding enrichment of the phosphorylated peptide, bacterial display (enrichment ratio); higher = better substrate or ligand; peptides without Tyr show the background
SHP2-C SH2 = experiment: as above
c-Src SH2 = experiment: as above
Fyn = Fyn (UniProt P06241); experiment: phosphorylation enrichment, bacterial display (enrichment ratio); higher = better substrate or ligand; peptides without Tyr show the background
Chain of Fyn (P06241 whole entry, looked up): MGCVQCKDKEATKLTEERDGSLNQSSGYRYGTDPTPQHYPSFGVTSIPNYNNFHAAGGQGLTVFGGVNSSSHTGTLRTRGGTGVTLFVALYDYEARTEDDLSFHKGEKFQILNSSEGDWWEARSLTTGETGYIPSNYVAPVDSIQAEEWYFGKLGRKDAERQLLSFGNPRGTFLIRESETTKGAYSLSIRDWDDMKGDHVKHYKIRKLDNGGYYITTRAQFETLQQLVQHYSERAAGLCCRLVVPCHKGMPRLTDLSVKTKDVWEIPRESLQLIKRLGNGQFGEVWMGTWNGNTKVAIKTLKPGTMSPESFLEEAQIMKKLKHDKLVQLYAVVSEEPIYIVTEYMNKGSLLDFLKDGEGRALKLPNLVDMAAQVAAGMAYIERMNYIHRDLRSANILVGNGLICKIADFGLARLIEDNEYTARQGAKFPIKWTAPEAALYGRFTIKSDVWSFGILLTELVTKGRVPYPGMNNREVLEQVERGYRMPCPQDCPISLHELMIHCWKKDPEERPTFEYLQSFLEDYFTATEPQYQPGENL

Jak2 = Jak2 (UniProt O60674); experiment: as above
c-Abl (mouse) = experiment: as above
EPHB1 = EPHB1 (UniProt P54762); experiment: as above
c-Src = experiment: as above
AncSZ = experiment: as above
Fer (mouse) = experiment: as above
FGFR3 = FGFR3 (UniProt P22607); experiment: as above
EPHB2 = EPHB2 (UniProt P29323); experiment: as above
Chain of EPHB2 (P29323 whole entry, looked up): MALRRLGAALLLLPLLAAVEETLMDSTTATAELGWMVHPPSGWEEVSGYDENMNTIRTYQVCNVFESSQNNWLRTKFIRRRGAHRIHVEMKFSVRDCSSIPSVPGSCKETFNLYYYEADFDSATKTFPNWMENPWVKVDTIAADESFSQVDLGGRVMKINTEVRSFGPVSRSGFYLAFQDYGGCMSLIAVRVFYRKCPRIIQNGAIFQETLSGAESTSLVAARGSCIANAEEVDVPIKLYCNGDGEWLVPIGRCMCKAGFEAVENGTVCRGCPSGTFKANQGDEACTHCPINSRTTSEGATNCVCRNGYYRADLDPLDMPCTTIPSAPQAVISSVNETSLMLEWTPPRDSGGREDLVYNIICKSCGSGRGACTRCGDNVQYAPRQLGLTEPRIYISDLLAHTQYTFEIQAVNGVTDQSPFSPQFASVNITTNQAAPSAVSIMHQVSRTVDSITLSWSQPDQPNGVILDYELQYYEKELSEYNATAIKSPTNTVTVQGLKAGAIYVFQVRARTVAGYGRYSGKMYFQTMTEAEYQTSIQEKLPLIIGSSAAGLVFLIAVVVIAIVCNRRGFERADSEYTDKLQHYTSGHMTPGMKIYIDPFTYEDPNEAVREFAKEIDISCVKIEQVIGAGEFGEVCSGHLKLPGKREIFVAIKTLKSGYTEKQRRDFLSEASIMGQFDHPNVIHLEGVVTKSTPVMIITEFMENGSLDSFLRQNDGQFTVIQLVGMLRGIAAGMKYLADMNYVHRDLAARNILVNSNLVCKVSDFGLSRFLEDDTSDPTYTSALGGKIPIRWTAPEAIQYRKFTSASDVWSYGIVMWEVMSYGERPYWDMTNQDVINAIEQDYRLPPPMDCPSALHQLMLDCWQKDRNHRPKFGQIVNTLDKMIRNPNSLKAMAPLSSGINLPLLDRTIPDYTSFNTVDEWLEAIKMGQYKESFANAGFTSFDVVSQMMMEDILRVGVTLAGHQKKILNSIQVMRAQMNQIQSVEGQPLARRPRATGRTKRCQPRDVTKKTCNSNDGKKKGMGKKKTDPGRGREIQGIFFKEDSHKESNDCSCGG

Fes = Fes (UniProt P07332); experiment: as above
Chain of Fes (P07332 whole entry, looked up): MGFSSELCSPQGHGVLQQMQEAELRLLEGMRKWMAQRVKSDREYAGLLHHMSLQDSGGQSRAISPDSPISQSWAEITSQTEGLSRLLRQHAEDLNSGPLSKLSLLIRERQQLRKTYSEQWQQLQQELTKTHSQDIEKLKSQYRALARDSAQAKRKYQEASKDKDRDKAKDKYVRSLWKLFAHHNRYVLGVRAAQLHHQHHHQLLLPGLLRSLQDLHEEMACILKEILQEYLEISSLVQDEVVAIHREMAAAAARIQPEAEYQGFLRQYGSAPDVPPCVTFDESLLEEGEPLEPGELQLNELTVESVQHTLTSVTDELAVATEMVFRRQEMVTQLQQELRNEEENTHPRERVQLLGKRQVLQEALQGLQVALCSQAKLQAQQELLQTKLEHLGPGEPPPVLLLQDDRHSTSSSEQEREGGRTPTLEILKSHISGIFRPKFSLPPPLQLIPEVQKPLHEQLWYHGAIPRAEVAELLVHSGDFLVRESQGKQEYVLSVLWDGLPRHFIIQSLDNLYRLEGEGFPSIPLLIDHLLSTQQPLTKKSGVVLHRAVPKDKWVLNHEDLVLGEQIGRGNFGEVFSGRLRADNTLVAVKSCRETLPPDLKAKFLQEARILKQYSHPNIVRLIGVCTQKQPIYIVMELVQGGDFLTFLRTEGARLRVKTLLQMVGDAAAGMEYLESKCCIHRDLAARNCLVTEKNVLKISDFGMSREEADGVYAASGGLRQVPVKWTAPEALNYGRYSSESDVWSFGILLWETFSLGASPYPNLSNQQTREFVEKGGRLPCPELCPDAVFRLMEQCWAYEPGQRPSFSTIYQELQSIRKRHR

FGFR1 = FGFR1 (UniProt P11362); experiment: as above
Chain of FGFR1 (P11362 whole entry, looked up): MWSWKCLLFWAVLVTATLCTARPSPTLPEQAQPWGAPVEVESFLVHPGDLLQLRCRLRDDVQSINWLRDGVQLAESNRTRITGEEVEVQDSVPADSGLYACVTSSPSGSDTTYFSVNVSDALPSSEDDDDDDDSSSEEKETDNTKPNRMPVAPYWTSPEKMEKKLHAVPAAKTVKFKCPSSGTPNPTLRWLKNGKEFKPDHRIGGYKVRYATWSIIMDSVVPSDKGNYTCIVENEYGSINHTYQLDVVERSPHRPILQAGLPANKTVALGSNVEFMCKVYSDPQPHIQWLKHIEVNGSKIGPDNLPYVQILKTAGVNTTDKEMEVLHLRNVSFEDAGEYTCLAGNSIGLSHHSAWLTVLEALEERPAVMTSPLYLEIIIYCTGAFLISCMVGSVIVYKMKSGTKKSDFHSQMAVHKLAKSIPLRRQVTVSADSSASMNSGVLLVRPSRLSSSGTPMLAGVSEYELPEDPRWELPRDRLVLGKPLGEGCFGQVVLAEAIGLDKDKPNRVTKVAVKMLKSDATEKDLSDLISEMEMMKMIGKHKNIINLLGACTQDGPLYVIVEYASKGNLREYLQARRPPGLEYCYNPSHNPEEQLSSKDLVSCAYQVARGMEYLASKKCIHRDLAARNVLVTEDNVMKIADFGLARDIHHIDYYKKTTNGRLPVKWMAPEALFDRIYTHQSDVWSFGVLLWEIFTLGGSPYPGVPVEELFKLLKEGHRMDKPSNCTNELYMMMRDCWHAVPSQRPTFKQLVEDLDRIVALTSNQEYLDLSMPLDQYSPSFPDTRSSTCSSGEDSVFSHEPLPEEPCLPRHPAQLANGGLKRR

MERTK = MERTK (UniProt Q12866); experiment: as above
Chain of MERTK (Q12866 whole entry, looked up): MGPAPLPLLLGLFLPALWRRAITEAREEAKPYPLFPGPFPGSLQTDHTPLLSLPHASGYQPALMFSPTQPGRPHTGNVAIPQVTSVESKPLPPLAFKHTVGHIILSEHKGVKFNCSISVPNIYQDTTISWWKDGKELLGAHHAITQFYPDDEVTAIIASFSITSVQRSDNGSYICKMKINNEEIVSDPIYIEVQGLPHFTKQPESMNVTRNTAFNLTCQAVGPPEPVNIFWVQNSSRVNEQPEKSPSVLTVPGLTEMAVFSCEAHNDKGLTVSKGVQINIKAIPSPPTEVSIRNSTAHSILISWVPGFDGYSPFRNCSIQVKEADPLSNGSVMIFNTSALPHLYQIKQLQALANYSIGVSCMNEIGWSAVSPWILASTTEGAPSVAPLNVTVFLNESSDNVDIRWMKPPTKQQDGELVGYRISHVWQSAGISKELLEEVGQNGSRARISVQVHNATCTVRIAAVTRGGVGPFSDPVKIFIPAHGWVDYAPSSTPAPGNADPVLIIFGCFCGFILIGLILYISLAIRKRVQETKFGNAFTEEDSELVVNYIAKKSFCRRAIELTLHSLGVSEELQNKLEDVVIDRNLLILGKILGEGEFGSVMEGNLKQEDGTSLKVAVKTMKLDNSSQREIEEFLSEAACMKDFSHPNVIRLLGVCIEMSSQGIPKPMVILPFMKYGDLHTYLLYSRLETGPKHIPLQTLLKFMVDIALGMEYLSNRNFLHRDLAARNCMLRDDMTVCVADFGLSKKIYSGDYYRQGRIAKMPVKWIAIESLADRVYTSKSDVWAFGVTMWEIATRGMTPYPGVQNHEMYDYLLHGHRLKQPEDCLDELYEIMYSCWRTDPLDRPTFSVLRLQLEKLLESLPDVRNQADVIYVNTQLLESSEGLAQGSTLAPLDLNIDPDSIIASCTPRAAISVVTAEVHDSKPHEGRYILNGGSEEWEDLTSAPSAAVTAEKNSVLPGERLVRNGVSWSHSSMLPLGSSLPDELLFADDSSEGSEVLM

Hck = Hck (UniProt P08631); experiment: as above
Chain of Hck (P08631 whole entry, looked up, the tested form may be a part): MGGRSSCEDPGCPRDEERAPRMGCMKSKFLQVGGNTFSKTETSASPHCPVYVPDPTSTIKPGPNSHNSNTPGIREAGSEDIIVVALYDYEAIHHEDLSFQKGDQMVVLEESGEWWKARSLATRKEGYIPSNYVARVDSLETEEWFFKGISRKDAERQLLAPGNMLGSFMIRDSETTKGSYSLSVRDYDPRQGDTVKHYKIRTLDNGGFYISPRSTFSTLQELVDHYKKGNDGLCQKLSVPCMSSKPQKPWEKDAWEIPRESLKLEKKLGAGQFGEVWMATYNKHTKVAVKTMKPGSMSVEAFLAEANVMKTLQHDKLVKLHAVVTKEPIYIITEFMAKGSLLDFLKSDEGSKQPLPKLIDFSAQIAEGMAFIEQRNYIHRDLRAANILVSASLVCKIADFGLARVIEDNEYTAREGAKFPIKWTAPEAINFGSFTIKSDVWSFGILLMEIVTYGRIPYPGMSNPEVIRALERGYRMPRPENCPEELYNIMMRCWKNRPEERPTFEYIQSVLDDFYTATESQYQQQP
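For SH2 binding enrichment of the phosphorylated peptide, bacterial display in this document: peptide library displayed on the E. coli surface as eCPX fusions, selected cells deep-sequenced, score is each peptide's frequency after selection divided by its frequency in the input.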
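For phosphorylation enrichment, bacterial display in this document: 11-residue human phosphosite peptides and single-mutation variants displayed on the E. coli surface, counted by deep sequencing, each peptide's frequency after selection divided by its frequency in the unselected input library; frequency after pTyr selection over input frequency; kinase dosed for 20-30% of maximal phosphorylation in three min.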

Chain of Grb2 SH2 (P62993 whole entry, looked up): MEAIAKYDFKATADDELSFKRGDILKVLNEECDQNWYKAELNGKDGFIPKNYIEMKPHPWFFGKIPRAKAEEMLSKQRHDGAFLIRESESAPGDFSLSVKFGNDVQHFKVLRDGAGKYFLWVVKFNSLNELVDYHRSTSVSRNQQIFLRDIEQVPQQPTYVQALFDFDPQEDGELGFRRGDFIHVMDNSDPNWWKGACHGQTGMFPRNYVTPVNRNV

| Sequence | SH2 binding enrichment (Grb2 SH2) | SH2 binding enrichment (SHP2-C SH2) | SH2 binding enrichment (c-Src SH2) | phosphorylation enrichment (Fyn) | phosphorylation enrichment (Jak2) | phosphorylation enrichment (c-Abl (mouse)) | phosphorylation enrichment (EPHB1) | phosphorylation enrichment (c-Src) | phosphorylation enrichment (AncSZ) | phosphorylation enrichment (Fer (mouse)) | phosphorylation enrichment (FGFR3) | phosphorylation enrichment (EPHB2) | phosphorylation enrichment (Fes) | phosphorylation enrichment (FGFR1) | phosphorylation enrichment (MERTK) | phosphorylation enrichment (Hck) |
| --- | --- | --- | --- | --- | --- | --- | --- | --- | --- | --- | --- | --- | --- | --- | --- | --- |
| DEEPPDRGPFC [SASH1_Y551_Y551D] | 1.01 | 0.694 | 0.61 | 0.532 | 0.952 | 0.798 | 0.549 | 0.513 | 1.15 | 0.665 | 0.679 | 0.596 | 1.14 | 0.574 | 0.465 | 0.496 |
| DFFDLYGGEKF [PTPN11_Y66_YF] | 0.904 | 0.639 | 0.56 | 2.12 | 1.06 | 0.967 | 0.569 | 2.79 | 0.912 | 0.682 | 0.629 | 0.525 | 1 | 0.523 | 0.441 | 3.08 |
| DGMADCSDPSY [CDC5L_Y459_Y459C] | 1.22 | 0.629 | 0.615 | 0.492 | 1.06 | 0.755 | 0.607 | 0.425 | 1.12 | 0.52 | 0.754 | 0.595 | 1.18 | 0.465 | 0.412 | 0.543 |
| DKATEYIQYVR [MAX_Y70_M74V] | 0.94 | 1.27 | 0.517 | 0.535 | 0.763 | 0.582 | 0.519 | 0.493 | 0.983 | 0.43 | 0.507 | 0.582 | 0.976 | 0.506 | 0.425 | 0.552 |
| DKMEAYNINET [TEKT4_Y210_D213N] | 0.951 | 0.665 | 0.444 | 0.505 | 1.13 | 0.808 | 0.488 | 0.577 | 1.09 | 0.489 | 0.663 | 0.535 | 1.27 | 0.481 | 0.492 | 0.535 |
| DLAHKYHGGGG [HBB_Y146_A141D] | 0.722 | 0.54 | 0.42 | 0.373 | 0.545 | 0.394 | 0.333 | 0.388 | 0.441 | 0.32 | 0.388 | 0.392 | 0.473 | 0.43 | 0.452 | 0.348 |
| DLDLTSIYPNI [PTEN_Y27_Y27S] | 0.808 | 0.614 | 0.949 | 0.506 | 0.903 | 0.837 | 0.498 | 0.53 | 0.871 | 0.425 | 0.78 | 0.582 | 0.955 | 0.468 | 0.516 | 0.478 |
| DMQTLYVNTAA [SMCHD1_Y403] | 4.57 | 0.643 | 0.635 | 0.485 | 0.518 | 0.734 | 0.428 | 0.418 | 0.647 | 0.482 | 0.478 | 0.64 | 0.588 | 0.471 | 0.513 | 0.578 |
| DNEAIYDICRC [TUBA4A_Y210_R215C] | 0.932 | 0.662 | 0.524 | 9.3 | 0.923 | 10.3 | 1.82 | 6.51 | 3.65 | 7.98 | 0.761 | 4.87 | 1.28 | 0.633 | 5.93 | 7.18 |
| DNEYAYLKAII [HNF4A_Y288] | 0.732 | 0.513 | 0.391 | 0.615 | 0.856 | 2.79 | 1.68 | 0.599 | 1.27 | 0.667 | 2.4 | 0.97 | 1.01 | 3.79 | 0.603 | 1.58 |
| DPEATYTTSGS [EPHA2_Y772_G777S] | 0.873 | 0.731 | 0.571 | 0.518 | 0.694 | 0.617 | 0.476 | 0.633 | 0.889 | 0.48 | 0.596 | 0.518 | 0.981 | 0.425 | 0.34 | 0.598 |
| DPGVSYHTREE [PDHA1_Y301_R302H] | 0.65 | 0.713 | 0.359 | 0.483 | 0.465 | 0.399 | 0.351 | 0.41 | 0.677 | 0.383 | 0.548 | 0.429 | 0.764 | 0.452 | 0.405 | 0.551 |
| DPHKIFEFVNS [IRF3_Y107_Y107F] | 0.662 | 0.703 | 0.425 | 0.606 | 0.615 | 0.431 | 0.54 | 0.417 | 0.791 | 0.771 | 0.596 | 0.539 | 0.88 | 0.643 | 0.412 | 0.607 |
| DPTFGYEDFTR [SESN2_Y323] | 0.821 | 0.771 | 5.25 | 0.461 | 1.03 | 0.733 | 0.525 | 0.694 | 1.08 | 0.445 | 0.699 | 0.577 | 1.28 | 0.481 | 0.545 | 0.595 |
| DQLVKYGVNPG [TMPO_Y127] | 0.888 | 0.498 | 0.539 | 0.369 | 0.479 | 0.475 | 0.467 | 0.294 | 0.553 | 0.356 | 0.49 | 0.325 | 0.605 | 0.292 | 0.314 | 0.363 |
| DRLANYLEKVR [KRT40_Y103_S102N] | 0.764 | 0.731 | 0.339 | 0.399 | 0.587 | 0.469 | 0.337 | 0.395 | 0.651 | 0.373 | 0.64 | 0.424 | 0.74 | 0.382 | 0.41 | 0.38 |
| DRLASYLEKVR [KRT13_Y118] | 0.93 | 0.676 | 0.423 | 0.366 | 0.616 | 0.451 | 0.372 | 0.412 | 0.736 | 0.424 | 0.384 | 0.399 | 0.677 | 0.393 | 0.424 | 0.375 |

| Sequence | SH2 binding enrichment (Grb2 SH2) | SH2 binding enrichment (SHP2-C SH2) | SH2 binding enrichment (c-Src SH2) | phosphorylation enrichment (Fyn) | phosphorylation enrichment (Jak2) | phosphorylation enrichment (c-Abl (mouse)) | phosphorylation enrichment (EPHB1) | phosphorylation enrichment (c-Src) | phosphorylation enrichment (AncSZ) | phosphorylation enrichment (Fer (mouse)) | phosphorylation enrichment (FGFR3) | phosphorylation enrichment (EPHB2) | phosphorylation enrichment (Fes) | phosphorylation enrichment (FGFR1) | phosphorylation enrichment (MERTK) | phosphorylation enrichment (Hck) |
| --- | --- | --- | --- | --- | --- | --- | --- | --- | --- | --- | --- | --- | --- | --- | --- | --- |
| DRSSLYLVAGP [KIAA1614_Y1083_N1078D] | 0.781 | 0.685 | 0.519 | 0.523 | 1.08 | 0.652 | 0.709 | 0.749 | 1.25 | 0.615 | 0.665 | 0.833 | 1.13 | 0.593 | 1.33 | 0.842 |
| DSGKLYALDVL [INO80_Y1104] | 0.744 | 0.729 | 0.668 | 0.752 | 0.731 | 0.643 | 0.711 | 1.02 | 0.921 | 0.676 | 0.721 | 0.705 | 0.93 | 0.525 | 3.17 | 0.58 |
| DSSIRYLQEIF [FGG_Y135_YF] | 0.856 | 0.693 | 0.473 | 0.559 | 0.755 | 0.545 | 0.576 | 0.497 | 0.868 | 0.417 | 0.604 | 0.5 | 0.924 | 0.632 | 0.542 | 0.527 |
| DSSIRYLQEIY [FGG_Y135] | 0.935 | 0.629 | 0.526 | 0.776 | 0.733 | 0.567 | 0.587 | 1.14 | 0.893 | 0.549 | 0.655 | 0.585 | 1.02 | 0.59 | 0.438 | 0.948 |
| DTSKMYIPHTD [EXPH5_Y782] | 0.679 | 0.512 | 0.417 | 0.372 | 0.606 | 0.549 | 0.487 | 0.371 | 0.624 | 0.436 | 0.577 | 0.405 | 0.786 | 0.445 | 0.399 | 0.427 |
| DWQQEYVLNES [TGM1_Y267_R264Q] | 0.766 | 0.681 | 0.506 | 0.648 | 0.957 | 0.788 | 1.42 | 2.73 | 2.03 | 0.434 | 0.996 | 0.615 | 1.45 | 1.11 | 0.427 | 0.6 |
| DWRQEYVLNEP [TGM1_Y267_S272P] | 0.877 | 0.75 | 0.523 | 0.672 | 0.988 | 0.669 | 0.407 | 1.89 | 1.24 | 0.55 | 1.24 | 0.426 | 1.13 | 1.7 | 0.495 | 0.397 |
| DWRQEYVLNES [TGM1_Y267] | 0.856 | 0.702 | 0.449 | 0.593 | 0.863 | 0.677 | 0.55 | 1.36 | 1.23 | 0.558 | 0.909 | 0.817 | 1.15 | 0.878 | 0.53 | 0.686 |
| DYSLKYPTDIP [APC_Y1183_A1184P] | 0.765 | 0.666 | 0.438 | 0.534 | 0.852 | 0.52 | 0.618 | 0.442 | 0.867 | 0.476 | 0.866 | 0.478 | 0.844 | 0.691 | 0.549 | 0.503 |
| EAESWYQTKYE [KRT75_Y342] | 0.858 | 0.437 | 0.547 | 0.546 | 1.07 | 0.686 | 0.641 | 0.62 | 1.15 | 0.505 | 0.752 | 0.655 | 1.21 | 0.491 | 0.505 | 0.545 |
| EAVSIYQFYGQ [CBLC_Y402_H405Y] | 0.821 | 0.857 | 0.574 | 9.16 | 1.22 | 4.8 | 10.1 | 7.02 | 2.11 | 9.22 | 1.77 | 11.6 | 1.38 | 1.6 | 9.05 | 7.5 |
| ECIEFYELDKK [PMM2_Y145_R141C] | 1.11 | 0.662 | 0.805 | 0.501 | 0.977 | 0.825 | 0.579 | 0.999 | 1.22 | 0.589 | 0.776 | 0.596 | 1.13 | 0.569 | 0.485 | 0.572 |
| EDASEYYENYI [PARP4_Y214_F215Y] | 0.857 | 0.589 | 0.582 | 0.738 | 1.02 | 0.716 | 0.782 | 1.02 | 1.93 | 0.995 | 1.6 | 0.761 | 1.3 | 1.66 | 0.467 | 0.666 |
| EDSEYYRAFEE [CASQ2_Y179_K180R] | 0.939 | 0.559 | 0.411 | 0.765 | 1.37 | 0.915 | 0.823 | 0.754 | 2.96 | 0.518 | 1.26 | 0.724 | 1.6 | 0.937 | 0.497 | 0.675 |
| EEGENYQKGEQ [CHGB_Y173_R178Q] | 0.876 | 0.473 | 0.472 | 0.519 | 1.4 | 0.898 | 0.592 | 0.545 | 1.28 | 0.51 | 0.747 | 0.63 | 1.28 | 0.637 | 0.561 | 0.519 |
| EEQKKYFNATK [SCN5A_Y1494_M1498T_YF] | 0.766 | 0.516 | 0.581 | 0.34 | 0.6 | 0.459 | 0.356 | 0.377 | 0.607 | 0.366 | 0.582 | 0.479 | 0.729 | 0.49 | 0.269 | 0.379 |
